The values that follow come from patent US20200317768A1 (published 2020).

Assay [1] concerns the target T1, human FcγRIIb constitutively expressed on MDCK cells (human, UniProt P31994 43-310).
T1 sequence (looked up): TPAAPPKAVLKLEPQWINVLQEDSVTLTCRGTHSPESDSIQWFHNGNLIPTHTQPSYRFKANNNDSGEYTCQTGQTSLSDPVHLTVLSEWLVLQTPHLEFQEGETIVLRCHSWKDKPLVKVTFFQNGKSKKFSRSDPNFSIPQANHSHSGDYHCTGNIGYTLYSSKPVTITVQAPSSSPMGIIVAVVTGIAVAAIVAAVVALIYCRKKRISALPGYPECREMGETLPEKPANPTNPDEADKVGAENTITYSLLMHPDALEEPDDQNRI
The assay can be described thus: cell-based or functional assay.

Assay [2] addresses T2, soluble mouse FcγRII, His-tagged (mouse, UniProt P08101 30-210, limits assumed).
T2 construct: Captured on the chip by an anti-His antibody
T2 sequence (looked up): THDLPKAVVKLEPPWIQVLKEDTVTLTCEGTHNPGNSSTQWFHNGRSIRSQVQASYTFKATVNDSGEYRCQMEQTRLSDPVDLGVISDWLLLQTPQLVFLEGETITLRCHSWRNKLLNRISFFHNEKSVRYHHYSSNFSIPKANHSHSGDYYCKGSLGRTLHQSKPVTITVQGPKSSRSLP
The assay can be described thus: SPR, mouse FcgRII-His captured, antigen-antibody complex injected, pH7.4, 25C. The protocol:
Regarding the produced Fc region variant-containing antibodies, binding assays between soluble mouse FcγRII and antigen-antibody complexes were performed using BIACORE® T200 (GE Healthcare). Soluble mouse FcγRII was produced in the form of a His-tagged molecule by a method known to those skilled in the art. An appropriate amount of an anti-His antibody was fixed onto Sensor chip CM5 (GE Healthcare) by the amine coupling method using a His capture kit (GE Healthcare) to capture mouse FcγRII. Next, an antibody-antigen complex and a running buffer (as a reference solution) were injected, and interaction was allowed to take place with the mouse FcγRII captured onto the sensor chip. 20 mM N-(2-Acetamido)-2-aminoethanesulfonic acid, 150 mM NaCl, 1.2 mM CaCl₂, and 0.05% (w/v) TWEEN, 20 at pH7.4 was used as the running buffer, and the respective buffer was also used to dilute the soluble mouse FcγRII. To regenerate the sensor chip, 10 mM glycine-HCl at pH1.5 was used. All measurements were carried out at 25° C. […] To calculate the parameters, the BIACORE® T100 Evaluation Software (GE Healthcare) was used.
In general terms: Surface plasmon resonance follows binding to a sensor surface in real time, without labels.

B1: M103205H795-P1375m/M103202L889-SK1 (antibody, human IgG1, kappa)
heavy: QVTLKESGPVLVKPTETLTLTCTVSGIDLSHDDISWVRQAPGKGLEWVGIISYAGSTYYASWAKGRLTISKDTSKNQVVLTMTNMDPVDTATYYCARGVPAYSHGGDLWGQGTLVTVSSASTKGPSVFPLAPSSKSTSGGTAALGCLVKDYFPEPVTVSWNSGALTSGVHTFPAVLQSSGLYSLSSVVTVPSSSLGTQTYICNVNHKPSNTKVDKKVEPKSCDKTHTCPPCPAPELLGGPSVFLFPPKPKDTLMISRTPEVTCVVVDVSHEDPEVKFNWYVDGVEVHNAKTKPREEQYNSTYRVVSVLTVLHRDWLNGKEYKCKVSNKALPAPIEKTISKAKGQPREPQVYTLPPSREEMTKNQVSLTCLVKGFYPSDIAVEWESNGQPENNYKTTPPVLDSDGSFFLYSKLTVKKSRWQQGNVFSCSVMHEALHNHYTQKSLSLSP
light: DIVMTQSPATLSLSPGERATLSCTSSQSVYHANWLSWFQQKPGQPPKLLIYWASTLAYGVPSRFSGSGSGTDFTLTISSLQPEDAATYYCAGGYGGGRYAFGQGTKVEIKRTVAAPSVFIFPPSDEQLKSGTASVVCLLNNFYPREAKVQWKVDNALQSGNSQESVTEQDSKDSTYSLSSTLTLSKADYEKHKVYACEVTHQGLSSPVTKSFNRGEC
notes: also called MS1032LO06-P1375m
For B1, in assay [1], the celluar uptake was 3.43 relative to SG1 (=1.00). The “biacore IC binding” value in assay [2] is 1.21 relative to SG1 (=1.00).

B2: M103205H795-P1487m/M103202L889-SK1 (antibody, human IgG1, kappa)
heavy: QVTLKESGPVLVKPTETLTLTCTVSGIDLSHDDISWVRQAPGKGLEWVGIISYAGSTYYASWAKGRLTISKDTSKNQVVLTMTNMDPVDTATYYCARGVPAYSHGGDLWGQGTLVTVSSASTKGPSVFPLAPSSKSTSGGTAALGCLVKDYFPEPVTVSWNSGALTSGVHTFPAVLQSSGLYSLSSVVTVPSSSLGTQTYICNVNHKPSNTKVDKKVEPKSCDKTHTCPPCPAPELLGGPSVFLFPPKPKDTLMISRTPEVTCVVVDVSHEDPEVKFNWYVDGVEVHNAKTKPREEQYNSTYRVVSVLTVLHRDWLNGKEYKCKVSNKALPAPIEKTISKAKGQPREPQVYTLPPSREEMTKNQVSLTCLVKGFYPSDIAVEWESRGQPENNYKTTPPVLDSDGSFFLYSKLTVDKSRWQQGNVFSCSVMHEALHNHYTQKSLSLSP
light: DIVMTQSPATLSLSPGERATLSCTSSQSVYHANWLSWFQQKPGQPPKLLIYWASTLAYGVPSRFSGSGSGTDFTLTISSLQPEDAATYYCAGGYGGGRYAFGQGTKVEIKRTVAAPSVFIFPPSDEQLKSGTASVVCLLNNFYPREAKVQWKVDNALQSGNSQESVTEQDSKDSTYSLSSTLTLSKADYEKHKVYACEVTHQGLSSPVTKSFNRGEC
Consider B2, for which the celluar uptake in assay [1] was 1.23 relative to SG1 (=1.00). Also, the “biacore IC binding” value in assay [2] is 1.46 relative to SG1 (=1.00).

B3: M103205H795-P1484m/M103202L889-SK1 (antibody, human IgG1, kappa)
heavy: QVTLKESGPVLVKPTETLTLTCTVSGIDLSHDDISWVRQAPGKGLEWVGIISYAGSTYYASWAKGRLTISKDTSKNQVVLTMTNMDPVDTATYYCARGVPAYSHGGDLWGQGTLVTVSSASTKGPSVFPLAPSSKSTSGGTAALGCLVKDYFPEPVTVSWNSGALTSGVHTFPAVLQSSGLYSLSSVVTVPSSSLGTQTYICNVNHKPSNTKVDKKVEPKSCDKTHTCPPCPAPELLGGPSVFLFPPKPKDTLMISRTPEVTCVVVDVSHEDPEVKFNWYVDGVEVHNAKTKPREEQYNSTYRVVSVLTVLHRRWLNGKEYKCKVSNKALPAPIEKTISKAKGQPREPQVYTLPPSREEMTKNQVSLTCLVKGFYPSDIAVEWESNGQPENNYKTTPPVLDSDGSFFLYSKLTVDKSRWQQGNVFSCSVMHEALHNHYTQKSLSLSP
light: DIVMTQSPATLSLSPGERATLSCTSSQSVYHANWLSWFQQKPGQPPKLLIYWASTLAYGVPSRFSGSGSGTDFTLTISSLQPEDAATYYCAGGYGGGRYAFGQGTKVEIKRTVAAPSVFIFPPSDEQLKSGTASVVCLLNNFYPREAKVQWKVDNALQSGNSQESVTEQDSKDSTYSLSSTLTLSKADYEKHKVYACEVTHQGLSSPVTKSFNRGEC
B3: the celluar uptake in assay [1] is 0 relative to SG1 (=1.00). Moreover, in assay [2], the “biacore IC binding” value was 1.33 relative to SG1 (=1.00).

B4: M103205H795-P1491m/M103202L889-SK1 (antibody, human IgG1, kappa)
heavy: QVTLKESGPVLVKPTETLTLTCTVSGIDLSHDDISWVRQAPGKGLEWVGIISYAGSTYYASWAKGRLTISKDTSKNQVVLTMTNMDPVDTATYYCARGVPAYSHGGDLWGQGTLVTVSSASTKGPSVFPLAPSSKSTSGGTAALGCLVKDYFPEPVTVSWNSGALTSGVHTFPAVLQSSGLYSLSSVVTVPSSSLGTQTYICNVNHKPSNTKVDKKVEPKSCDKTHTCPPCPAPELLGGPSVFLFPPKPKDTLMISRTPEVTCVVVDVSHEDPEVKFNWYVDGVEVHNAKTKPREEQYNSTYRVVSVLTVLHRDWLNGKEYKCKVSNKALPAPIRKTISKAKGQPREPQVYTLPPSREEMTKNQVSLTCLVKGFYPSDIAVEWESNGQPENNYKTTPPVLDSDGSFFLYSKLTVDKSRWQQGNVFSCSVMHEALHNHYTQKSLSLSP
light: DIVMTQSPATLSLSPGERATLSCTSSQSVYHANWLSWFQQKPGQPPKLLIYWASTLAYGVPSRFSGSGSGTDFTLTISSLQPEDAATYYCAGGYGGGRYAFGQGTKVEIKRTVAAPSVFIFPPSDEQLKSGTASVVCLLNNFYPREAKVQWKVDNALQSGNSQESVTEQDSKDSTYSLSSTLTLSKADYEKHKVYACEVTHQGLSSPVTKSFNRGEC
Consider B4, for which, in assay [1], the celluar uptake is 1.37 relative to SG1 (=1.00). In assay [2], the “biacore IC binding” value was 1.05 relative to SG1 (=1.00).

B5: M103205H795-P1492m/M103202L889-SK1 (antibody, human IgG1, kappa)
heavy: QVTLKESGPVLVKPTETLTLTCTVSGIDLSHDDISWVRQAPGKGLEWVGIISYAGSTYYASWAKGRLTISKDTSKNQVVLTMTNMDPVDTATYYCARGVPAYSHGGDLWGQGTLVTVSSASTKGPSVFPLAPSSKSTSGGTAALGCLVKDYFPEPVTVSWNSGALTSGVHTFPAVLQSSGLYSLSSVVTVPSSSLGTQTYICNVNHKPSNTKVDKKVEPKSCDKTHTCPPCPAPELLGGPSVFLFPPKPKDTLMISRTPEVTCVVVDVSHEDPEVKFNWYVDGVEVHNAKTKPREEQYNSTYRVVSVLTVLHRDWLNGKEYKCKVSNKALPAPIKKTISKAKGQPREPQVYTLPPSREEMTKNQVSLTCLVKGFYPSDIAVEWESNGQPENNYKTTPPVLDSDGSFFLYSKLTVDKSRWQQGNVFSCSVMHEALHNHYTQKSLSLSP
light: DIVMTQSPATLSLSPGERATLSCTSSQSVYHANWLSWFQQKPGQPPKLLIYWASTLAYGVPSRFSGSGSGTDFTLTISSLQPEDAATYYCAGGYGGGRYAFGQGTKVEIKRTVAAPSVFIFPPSDEQLKSGTASVVCLLNNFYPREAKVQWKVDNALQSGNSQESVTEQDSKDSTYSLSSTLTLSKADYEKHKVYACEVTHQGLSSPVTKSFNRGEC
As for B5, in assay [1], the celluar uptake is 1.13 relative to SG1 (=1.00). For the same molecule, the “biacore IC binding” value in assay [2] is 0.88 relative to SG1 (=1.00).

B6: M103205H795-P1495m/M103202L889-SK1 (antibody, human IgG1, kappa)
heavy: not shown
light: DIVMTQSPATLSLSPGERATLSCTSSQSVYHANWLSWFQQKPGQPPKLLIYWASTLAYGVPSRFSGSGSGTDFTLTISSLQPEDAATYYCAGGYGGGRYAFGQGTKVEIKRTVAAPSVFIFPPSDEQLKSGTASVVCLLNNFYPREAKVQWKVDNALQSGNSQESVTEQDSKDSTYSLSSTLTLSKADYEKHKVYACEVTHQGLSSPVTKSFNRGEC
B6: the celluar uptake in assay [1] was 1.76 relative to SG1 (=1.00). Besides, in assay [2], the “biacore IC binding” value is 1.3 relative to SG1 (=1.00).

B7: M103205H795-P1488m/M103202L889-SK1 (antibody, human IgG1, kappa)
heavy: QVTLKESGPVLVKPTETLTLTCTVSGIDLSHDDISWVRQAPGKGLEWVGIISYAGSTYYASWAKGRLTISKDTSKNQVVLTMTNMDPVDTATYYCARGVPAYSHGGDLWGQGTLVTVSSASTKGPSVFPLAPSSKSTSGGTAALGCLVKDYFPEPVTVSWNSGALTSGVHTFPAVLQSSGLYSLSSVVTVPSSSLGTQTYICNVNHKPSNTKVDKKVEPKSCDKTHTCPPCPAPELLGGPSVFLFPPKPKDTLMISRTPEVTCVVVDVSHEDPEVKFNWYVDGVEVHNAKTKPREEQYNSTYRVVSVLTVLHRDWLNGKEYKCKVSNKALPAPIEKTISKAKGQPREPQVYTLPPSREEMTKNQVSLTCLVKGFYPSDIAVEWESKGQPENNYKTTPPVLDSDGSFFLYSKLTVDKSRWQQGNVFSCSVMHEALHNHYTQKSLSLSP
light: DIVMTQSPATLSLSPGERATLSCTSSQSVYHANWLSWFQQKPGQPPKLLIYWASTLAYGVPSRFSGSGSGTDFTLTISSLQPEDAATYYCAGGYGGGRYAFGQGTKVEIKRTVAAPSVFIFPPSDEQLKSGTASVVCLLNNFYPREAKVQWKVDNALQSGNSQESVTEQDSKDSTYSLSSTLTLSKADYEKHKVYACEVTHQGLSSPVTKSFNRGEC
Regarding B7, the celluar uptake in assay [1] is 1.45 relative to SG1 (=1.00). The “biacore IC binding” value in assay [2] is 1.43 relative to SG1 (=1.00).

B8: M103205H795-P1485m/M103202L889-SK1 (antibody, human IgG1, kappa)
heavy: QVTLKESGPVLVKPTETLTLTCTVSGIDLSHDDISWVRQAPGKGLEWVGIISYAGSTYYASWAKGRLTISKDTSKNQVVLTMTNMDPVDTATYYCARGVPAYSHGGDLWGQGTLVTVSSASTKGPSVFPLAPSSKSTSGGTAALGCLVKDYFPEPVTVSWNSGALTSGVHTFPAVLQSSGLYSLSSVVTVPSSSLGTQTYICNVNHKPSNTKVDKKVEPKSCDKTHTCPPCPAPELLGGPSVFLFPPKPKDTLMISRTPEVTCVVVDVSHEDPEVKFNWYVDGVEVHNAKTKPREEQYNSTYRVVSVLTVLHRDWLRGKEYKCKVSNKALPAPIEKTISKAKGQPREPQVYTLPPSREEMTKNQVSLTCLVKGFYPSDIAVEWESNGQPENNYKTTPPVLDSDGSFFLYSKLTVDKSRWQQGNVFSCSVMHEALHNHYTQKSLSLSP
light: DIVMTQSPATLSLSPGERATLSCTSSQSVYHANWLSWFQQKPGQPPKLLIYWASTLAYGVPSRFSGSGSGTDFTLTISSLQPEDAATYYCAGGYGGGRYAFGQGTKVEIKRTVAAPSVFIFPPSDEQLKSGTASVVCLLNNFYPREAKVQWKVDNALQSGNSQESVTEQDSKDSTYSLSSTLTLSKADYEKHKVYACEVTHQGLSSPVTKSFNRGEC
As for B8, in assay [1], the celluar uptake was 1.88 relative to SG1 (=1.00). For the same molecule, the “biacore IC binding” value in assay [2] is 1.29 relative to SG1 (=1.00).

B9: M103205H795-P1494m/M103202L889-SK1 (antibody, human IgG1, kappa)
heavy: not shown
light: DIVMTQSPATLSLSPGERATLSCTSSQSVYHANWLSWFQQKPGQPPKLLIYWASTLAYGVPSRFSGSGSGTDFTLTISSLQPEDAATYYCAGGYGGGRYAFGQGTKVEIKRTVAAPSVFIFPPSDEQLKSGTASVVCLLNNFYPREAKVQWKVDNALQSGNSQESVTEQDSKDSTYSLSSTLTLSKADYEKHKVYACEVTHQGLSSPVTKSFNRGEC
With B9, the celluar uptake in assay [1] was 1.12 relative to SG1 (=1.00). The “biacore IC binding” value in assay [2] is 1.14 relative to SG1 (=1.00).

B10: M103205H795-P1383m/M103202L889-SK1 (antibody, human IgG1, kappa)
heavy: QVTLKESGPVLVKPTETLTLTCTVSGIDLSHDDISWVRQAPGKGLEWVGIISYAGSTYYASWAKGRLTISKDTSKNQVVLTMTNMDPVDTATYYCARGVPAYSHGGDLWGQGTLVTVSSASTKGPSVFPLAPSSKSTSGGTAALGCLVKDYFPEPVTVSWNSGALTSGVHTFPAVLQSSGLYSLSSVVTVPSSSLGTQTYICNVNHKPSNTKVDKKVEPKSCDKTHTCPPCPAPELLGGPSVFLFPPKPKDTLMISRTPEVTCVVVDVSHEDPEVKFNWYVDGVEVHNAKTKPREEQYNSTYRVVSVLTVLHRDWLNGKEYKCKVSNKALPAPIEKTISKAKGQPREPQVYTLPPSREEMTKNQVSLTCLVKGFYPSDIAVEWESNGQPENNYKTTPPVLDRDGSFFLYSKLTVKKSRWQQGNVFSCSVMHEALHNHYTQKSLSLSP
light: DIVMTQSPATLSLSPGERATLSCTSSQSVYHANWLSWFQQKPGQPPKLLIYWASTLAYGVPSRFSGSGSGTDFTLTISSLQPEDAATYYCAGGYGGGRYAFGQGTKVEIKRTVAAPSVFIFPPSDEQLKSGTASVVCLLNNFYPREAKVQWKVDNALQSGNSQESVTEQDSKDSTYSLSSTLTLSKADYEKHKVYACEVTHQGLSSPVTKSFNRGEC
notes: also called MS1032LO06-P1383m
Regarding B10, in assay [1], the celluar uptake was 5.68 relative to SG1 (=1.00). Also, the “biacore IC binding” value in assay [2] was 1.41 relative to SG1 (=1.00).

B11: M103205H795-P1489m/M103202L889-SK1 (antibody, human IgG1, kappa)
heavy: not shown
light: DIVMTQSPATLSLSPGERATLSCTSSQSVYHANWLSWFQQKPGQPPKLLIYWASTLAYGVPSRFSGSGSGTDFTLTISSLQPEDAATYYCAGGYGGGRYAFGQGTKVEIKRTVAAPSVFIFPPSDEQLKSGTASVVCLLNNFYPREAKVQWKVDNALQSGNSQESVTEQDSKDSTYSLSSTLTLSKADYEKHKVYACEVTHQGLSSPVTKSFNRGEC
For the molecule B11, the celluar uptake in assay [1] was 1.68 relative to SG1 (=1.00). The “biacore IC binding” value in assay [2] is 1.24 relative to SG1 (=1.00).

B12: M103205H795-P1486m/M103202L889-SK1 (antibody, human IgG1, kappa)
heavy: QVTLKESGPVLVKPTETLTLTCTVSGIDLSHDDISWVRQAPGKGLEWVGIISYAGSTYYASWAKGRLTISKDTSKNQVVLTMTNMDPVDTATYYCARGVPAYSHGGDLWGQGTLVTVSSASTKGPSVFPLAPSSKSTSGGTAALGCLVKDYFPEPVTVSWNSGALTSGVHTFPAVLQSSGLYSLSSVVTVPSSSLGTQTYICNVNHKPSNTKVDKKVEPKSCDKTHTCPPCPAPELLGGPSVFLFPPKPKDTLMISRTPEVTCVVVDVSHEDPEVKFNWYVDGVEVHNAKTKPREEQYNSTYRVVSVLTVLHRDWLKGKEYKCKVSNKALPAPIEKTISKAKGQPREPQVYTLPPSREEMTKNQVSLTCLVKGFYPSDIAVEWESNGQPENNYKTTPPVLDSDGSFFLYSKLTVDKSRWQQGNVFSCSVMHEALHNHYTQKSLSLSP
light: DIVMTQSPATLSLSPGERATLSCTSSQSVYHANWLSWFQQKPGQPPKLLIYWASTLAYGVPSRFSGSGSGTDFTLTISSLQPEDAATYYCAGGYGGGRYAFGQGTKVEIKRTVAAPSVFIFPPSDEQLKSGTASVVCLLNNFYPREAKVQWKVDNALQSGNSQESVTEQDSKDSTYSLSSTLTLSKADYEKHKVYACEVTHQGLSSPVTKSFNRGEC
In the case of B12, the celluar uptake in assay [1] was 1.52 relative to SG1 (=1.00). In addition, the “biacore IC binding” value in assay [2] was 1.2 relative to SG1 (=1.00).

B13: M103205H795-P1490m/M103202L889-SK1 (antibody, human IgG1, kappa)
heavy: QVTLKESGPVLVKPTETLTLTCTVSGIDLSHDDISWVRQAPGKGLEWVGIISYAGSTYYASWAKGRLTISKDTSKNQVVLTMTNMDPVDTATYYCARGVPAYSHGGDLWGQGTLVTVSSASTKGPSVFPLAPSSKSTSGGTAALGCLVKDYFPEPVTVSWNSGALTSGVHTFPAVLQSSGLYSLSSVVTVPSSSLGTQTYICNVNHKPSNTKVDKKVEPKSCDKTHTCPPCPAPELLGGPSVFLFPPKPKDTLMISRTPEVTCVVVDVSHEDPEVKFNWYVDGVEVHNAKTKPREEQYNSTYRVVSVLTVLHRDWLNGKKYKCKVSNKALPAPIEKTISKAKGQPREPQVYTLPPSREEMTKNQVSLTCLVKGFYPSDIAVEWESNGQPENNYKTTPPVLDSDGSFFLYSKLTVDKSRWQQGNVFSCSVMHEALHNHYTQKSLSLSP
light: DIVMTQSPATLSLSPGERATLSCTSSQSVYHANWLSWFQQKPGQPPKLLIYWASTLAYGVPSRFSGSGSGTDFTLTISSLQPEDAATYYCAGGYGGGRYAFGQGTKVEIKRTVAAPSVFIFPPSDEQLKSGTASVVCLLNNFYPREAKVQWKVDNALQSGNSQESVTEQDSKDSTYSLSSTLTLSKADYEKHKVYACEVTHQGLSSPVTKSFNRGEC
As to B13, the celluar uptake in assay [1] is 1.33 relative to SG1 (=1.00). In addition, in assay [2], the “biacore IC binding” value was 1.28 relative to SG1 (=1.00).

B14: M103205H795-P1378m/M103202L889-SK1 (antibody, human IgG1, kappa)
heavy: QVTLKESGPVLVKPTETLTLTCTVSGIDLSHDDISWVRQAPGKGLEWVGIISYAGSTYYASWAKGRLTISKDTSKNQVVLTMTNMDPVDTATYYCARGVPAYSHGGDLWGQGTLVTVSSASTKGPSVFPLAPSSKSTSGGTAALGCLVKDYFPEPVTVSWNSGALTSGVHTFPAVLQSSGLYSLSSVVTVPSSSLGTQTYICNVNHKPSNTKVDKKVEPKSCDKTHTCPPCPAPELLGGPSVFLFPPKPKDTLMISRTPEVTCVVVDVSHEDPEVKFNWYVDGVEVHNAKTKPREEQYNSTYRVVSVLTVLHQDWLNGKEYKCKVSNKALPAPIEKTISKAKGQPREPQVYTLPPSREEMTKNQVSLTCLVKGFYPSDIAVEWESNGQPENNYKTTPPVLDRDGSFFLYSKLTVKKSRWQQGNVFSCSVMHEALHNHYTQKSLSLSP
light: DIVMTQSPATLSLSPGERATLSCTSSQSVYHANWLSWFQQKPGQPPKLLIYWASTLAYGVPSRFSGSGSGTDFTLTISSLQPEDAATYYCAGGYGGGRYAFGQGTKVEIKRTVAAPSVFIFPPSDEQLKSGTASVVCLLNNFYPREAKVQWKVDNALQSGNSQESVTEQDSKDSTYSLSSTLTLSKADYEKHKVYACEVTHQGLSSPVTKSFNRGEC
notes: also called MS1032LO06-P1378m
Consider B14, for which the celluar uptake in assay [1] was 3.86 relative to SG1 (=1.00). Besides, the “biacore IC binding” value in assay [2] is 1.23 relative to SG1 (=1.00).

B15: M103205H795-P1493m/M103202L889-SK1 (antibody, human IgG1, kappa)
heavy: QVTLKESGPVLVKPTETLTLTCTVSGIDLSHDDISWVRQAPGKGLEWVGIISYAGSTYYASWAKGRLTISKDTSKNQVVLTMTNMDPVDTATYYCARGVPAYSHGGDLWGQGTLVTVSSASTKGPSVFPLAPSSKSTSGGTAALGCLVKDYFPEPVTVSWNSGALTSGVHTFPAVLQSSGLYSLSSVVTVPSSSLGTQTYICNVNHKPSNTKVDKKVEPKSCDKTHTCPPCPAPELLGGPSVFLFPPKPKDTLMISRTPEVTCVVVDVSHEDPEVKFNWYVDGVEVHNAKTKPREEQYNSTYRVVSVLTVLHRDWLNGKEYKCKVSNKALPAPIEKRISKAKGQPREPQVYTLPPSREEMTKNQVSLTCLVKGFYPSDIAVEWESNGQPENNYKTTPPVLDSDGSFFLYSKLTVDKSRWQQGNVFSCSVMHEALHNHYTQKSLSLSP
light: DIVMTQSPATLSLSPGERATLSCTSSQSVYHANWLSWFQQKPGQPPKLLIYWASTLAYGVPSRFSGSGSGTDFTLTISSLQPEDAATYYCAGGYGGGRYAFGQGTKVEIKRTVAAPSVFIFPPSDEQLKSGTASVVCLLNNFYPREAKVQWKVDNALQSGNSQESVTEQDSKDSTYSLSSTLTLSKADYEKHKVYACEVTHQGLSSPVTKSFNRGEC
Turning to B15, the celluar uptake in assay [1] was 0.99 relative to SG1 (=1.00). Moreover, the “biacore IC binding” value in assay [2] is 1.1 relative to SG1 (=1.00).
